Data taken from the supplement of paper PMC7125110.
± gives the standard error. This sample holds only a part of the variants without activity.

B1: glmS ribozyme (parent)
chain: AUAAAAGCGCCAGAACUACAGAAAUGUAGUUGACGAGGAGGAGGUUUAUCGAAUUUUCGGCGGAUGCCUCCAAA

Variants of: B1
Assay: self-cleavage kobs at 640 uM GlcN6P; higher = faster cleavage; RNA array
Conditions: with glucosamine-6-phosphate
Outline: (§1)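 Tiles bearing barcoded ribozyme variants, transcribed in situ by E. coli RNA polymerase on sequenced MiSeq chips, were imaged over ~14 h at 37 °C using a hybridised Cy3 probe. Glucosamine-6-phosphate was supplied at 40 μM to 10 mM in HEPES/KCl/Mg(OAc)2 buffer. kobs came from one- or two-exponential decay fits to normalised per-tile medians, and weighted Michaelis–Menten fits then provided kcat and KM.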

Variant | self-cleavage kobs at 640 uM GlcN6P [s⁻¹]
U69G C71A | 6.61e-05 ± 2.3e-05
G41A A53U U56G G60A | < 1e-05
A42U C61U C67U | < 1e-05
G59A U69A | < 1e-05
U54C U55G C58A | 7.47e-05 ± 1.6e-05
G41U C50U G63U | < 1e-05
A48U G59C C68G | < 1e-05
A42C U46G C71G | < 1e-05
A48C U55G | 0.000142 ± 3.3e-05
A53G U55A U65G | 0.000667 ± 8.4e-05
U47A C61U U69G | 0.00233 ± 0.0008
G41U G51C U69C | < 1e-05
C50U C58A C68U | 8.66e-05 ± 2.6e-05
G43U C50G C70G | < 1e-05
G44A A53U U54G C61U | < 1e-05
U49A U57C | < 1e-05
G43A G44A C58U | < 1e-05
A42G A53U C67G | 0.00199 ± 0.00049
G60A C61U C70U | < 1e-05
A42C G43U G44U G51U | < 1e-05
A42G A52U | 5.23e-05 ± 1.2e-05
U47G G62U | < 1e-05
G41A U45C C70A | 5.47e-05 ± 1.8e-05
G40U G43U A48C U56A U65A | < 1e-05

Variant | self-cleavage kobs at 640 uM GlcN6P [s⁻¹]
G43A G44U C68G | < 1e-05
G44U U47C C71U | < 1e-05
G59U G62A C70G | 5.34e-05 ± 1.5e-05
G43A A48G U56A C68G | < 1e-05
U47A C50G C67U C71A | 0.000221 ± 0.00011
U45A A48C G60U C67U | < 1e-05
U45C U69G | 8.34e-05 ± 3.9e-05
C50A C58U C67G | 8.03e-05 ± 3.9e-05
G63C G66U | < 1e-05
U45G C70G | 0.000176 ± 7.2e-05
G40C G51C G63C C71A | < 1e-05
U57C C67U C68A | 8.67e-05 ± 4e-05
G41U U55G A64G | 8.52e-05 ± 3.1e-05
G43A U57G U69A | < 1e-05
A42G C68G | 7.72e-05 ± 2.8e-05
A52C A53G G60C U65C | < 1e-05
G41U C50U G60C | < 1e-05
U45G U65G G66U U69C | 0.000332 ± 7.1e-05
U47A A52U A64G | 7.01e-05 ± 1.7e-05
A52C A53U C67U C68U | 6.36e-05 ± 3e-05
C50U G59U U69A C70G | 0.000556 ± 0.00018
G41C G44A C70G | 0.00128 ± 0.00037
G41U A53U U56G G66A | 5.34e-05 ± 1.9e-05

Variants of: B1
Assay: self-cleavage kobs at 2500 uM GlcN6P; higher = faster cleavage; RNA array
Conditions: with glucosamine-6-phosphate
Outline: as §1

Variant | self-cleavage kobs at 2500 uM GlcN6P [s⁻¹]
G41A A53U U56G G60A | < 1e-05
G7A A39C G63A | < 1e-05
G7A U46C A52U C58A | < 1e-05
A6G A42C U69G | 0.000462 ± 0.00019
A6U C16G G40C G41A C70A | < 1e-05
A6C A33U A52G U57C C70U | < 1e-05
U54C U55G C58A | 0.000102 ± 1.2e-05
G41U C50U G63U | < 1e-05
A42C U46G C71G | < 1e-05
A48C U55G | 0.00018 ± 7e-05
A53G U55A U65G | 0.00174 ± 0.00031
G41U G51C U69C | < 1e-05
A6U C10U A15U A53G | < 1e-05
A6G A12G G51U | < 1e-05
A6U G43A G51C | < 1e-05
A6C G13A G38U U57G A64U | < 1e-05
G60A C61U C70U | < 1e-05
A6G U54C G63C | < 1e-05
A42G A52U | 0.000479 ± 9.3e-05
G7C A14C G60C | < 1e-05
A6U G51C U55A G66A | < 1e-05
A6C C11U C68U | < 1e-05
G7C A14G G43A U46A U47C G60U | < 1e-05

Variant | self-cleavage kobs at 2500 uM GlcN6P [s⁻¹]
U2G U46G A53U | 0.00369 ± 0.0011
G43A G44U C68G | < 1e-05
G44U U47C C71U | < 1e-05
G63C G66U | < 1e-05
A6U C8U G32A A33G G44A U45G | < 1e-05
A6U C11A G29A C50U | < 1e-05
U45G C70G | 4.73e-05 ± 1.8e-05
A6G A39G U54G | 0.000164 ± 4.9e-05
A6U C11A G62A | < 1e-05
A6G G7A C16G U49C A53U C67U | < 1e-05
G40C G51C G63C C71A | < 1e-05
G41U U55G A64G | 0.000147 ± 4.4e-05
G7C A12G A39U A42C U65C C71A | < 1e-05
A42G C68G | 0.000308 ± 7.3e-05
A6G A33G U54A U56C | < 1e-05
G7A A36U U46G A48C C70U C71G | < 1e-05
U45G U65G G66U U69C | 0.00052 ± 0.00017
G7A G43A C70A | < 1e-05
U47A A52U A64G | 0.000177 ± 5.4e-05
A52C A53U C67U C68U | 9.26e-05 ± 4.1e-05
C50U G59U U69A C70G | 7.32e-05 ± 2.9e-05
G41C G44A C70G | 0.00311 ± 0.00077
G41U A53U U56G G66A | 0.000221 ± 4.9e-05

Variants of: B1
Assay: self-cleavage kobs at 10000 uM GlcN6P; higher = faster cleavage; RNA array
Conditions: with glucosamine-6-phosphate
Outline: as §1

Variant | self-cleavage kobs at 10000 uM GlcN6P [s⁻¹]
G41U C50U G63U | < 1e-05
A42G A53U C67G | 0.00458 ± 0.0017
A42G A52U | 0.000467 ± 9.8e-05
U47A C50G C67U C71A | 0.000134 ± 2.8e-05
G63C G66U | < 1e-05
U45G C70G | 0.000258 ± 6.7e-05
A42G C68G | 0.000128 ± 2.2e-05
U45G U65G G66U U69C | 0.00192 ± 0.00028
